Assay [1] addresses Biotinylated green fluorescent protein (biotin-GFP). The assay can be described thus: native-PAGE, dissociation under excess biotin, 23 °C, 10 h.
The target is the same in assay [2]. As to the kind of experiment: native-PAGE, dissociation under excess biotin, 37 °C, 10 h.
Assay [3] has the same target. As to the kind of experiment: native-PAGE, dissociation under excess biotin, 45 °C, 10 h.

Turning to “Neutravidin (NA) (from UniProt P02701 25-152)”, the percent of biotin conjugate dissociated after 10 h in assay [1] was 6.8%; in assay [2] it was 16%; in assay [3] it was 32%.

For the origin of these results see US20170114104A1.
